Assay results reported in the Immune Epitope Database (IEDB).

What was measured:
Assay in all cases: IEDB peptide-MHC binding, purified MHC/competitive/fluorescence; filed as Kd, often an IC50 or EC50 that approximates it; ≥ and ≤ were set here for values at or beyond the usual limits of such assays
Settings in all cases: source organism: Vibrio antiquarius
[1] = biological target: HLA-B*51:01
[2] = biological target: HLA-A*02:11
[3] = biological target: HLA-B*15:01
[4] = biological target: HLA-B*57:01
[5] = biological target: HLA-A*69:01
[6] = biological target: HLA-A*26:01
[7] = biological target: HLA-A*68:02
[8] = biological target: HLA-B*27:03
[9] = biological target: HLA-B*46:01
[10] = biological target: HLA-A*25:01
[11] = biological target: HLA-A*02:03
[12] = biological target: HLA-B*39:01
[13] = biological target: HLA-A*02:19
[14] = biological target: HLA-B*18:01
[15] = biological target: HLA-A*23:01
[16] = biological target: HLA-A*29:02
[17] = biological target: HLA-B*15:17
[18] = biological target: HLA-A*80:01
[19] = biological target: HLA-A*02:12
[20] = biological target: HLA-A*24:03
[21] = biological target: HLA-A*02:01
[22] = biological target: HLA-A*03:01

Measured: Kd

SLTIPSFYT
0.0097 µM: [2]
≥ 20 µM: all other assays above
